Measured values: US8030017B2, “Thermostable luciferases and methods of production” (Promega Corporation, priority 1997, dated 2011)

Assays:
[1] = Robotic quantitative screen of E. coli lysates: enzyme stability (tau) at elevated temperature; assay type: physicochemical; conditions: relative value; Control is Luc85-4F12 at 65° C. (=1)
Method: Two white assay plates (Labsystems #9502887) are obtained from the plate feeder and placed in the pipetter. The incubation plate from the shaker is placed in the pipetter, and the lid removed and placed on the nearby locator. Two daughter plates are made using the pipetting procedure (see “Create Pair of Daughter Plates from Incubation Plate”). Afterwards, the lid is replaced on the parent plate, and the plate is placed in a high temperature incubator. [ranging from 31° C. to about 65° C. depending on the clone.]
To begin the second set of measurements, the plate from the high temperature incubator is placed in the shaker to mix.
In the final set of measurements, the plate from the high temperature incubator is again placed in the shaker to mix.
(§1) The following criteria were used for screening purposes. The temperature chosen for the enzyme stability parameter was such that the parent enzyme would decay 100 to 1000 fold over 10 hours (see Table 1). Criteria 1 is achieved manually; data for criteria 2-6 is generated by robotic analysis. For all criteria, the maximum value as described is selected. • 1. In vivo screen. The brightest clones are selected at a given temperature. • 2. Expression/specific activity. The value for normalized luminescence is calculated as the ratio of luminescence to optical density. The value is reported as the ratio with the reference value. • 3. Enzyme stability. Measurements of normalized luminescence of the incubated samples (3 taken over about 15 hours) are fitted to In(L)=In(L0)−(t/τ), where L is normalized luminescence and t is time. τ is a measure of the enzyme stability. The value is reported as the ratio with the reference value, and the correlation coefficients are calculated. • 4. Substrate binding. Measurements of normalized luminescence with 1X and 0.02X are taken at the initial reading set, and 1X and 0.06X are taken at the 5 hour set. The ratio of the 0.02X:1X and 0.06X:1X gives the relative luminescence at 0.02X and 0.06X concentrations. These values, along with the relative luminescence at 1X (i.e., 1), are fitted to a Lineweaver-Burk plot to yield the Km:app,total for the substrates ATP, luciferin, and CoA. The values are reported as the inverse ratio with the reference value, and the correlation coefficients are calculated. • 5. Signal stability. The luminescence of the initial IX luminescent reactions are re-measured 3 additional times over about 15 hours. These values are fitted to In(L)=In(L0)−(t/τ) and the integral over t (15 hours) is calculated. Signal stability is then calculated as S=(1−int(L)/L0t)^2. The values are reported as the inverse ratio with the reference value, and the correlation coefficients are calculated. • 6. Composite fitness. The values of criteria 2 through 5 are combined into a single composite value of fitness (or commercial utility). This value is based on a judgment of the relative importance of the other criteria. This judgment is given below:
Calculate enzyme stability (τ): For each sample, use linear regression to fit In(L1x)=In(L0)−(t/τ) using the three luminescence measurements with 1X substrate concentrations (Plates 1, 5, 8). Also calculate the regression coefficient.
Calculate the reference-normalized values: For the criteria parameter of each sample, a reference-normalized value is determined by calculating the ratio or inverse ratio with the respective reference value. The reference-normalized values are Li/Lir, τ/τr, Kmr/Km:app,total, and Sr/S, where reference values are calculated from the equations of the appropriate reference surface.
“Enzyme stability” was determined by the rate of activity loss from cell lysates over 10 hours. In successive rounds of evolution the incubation temperature of the lysates was increased.
Robotic Automation: Robotic automation was used in the quantitative screens to accurately perform the large number of required quantitative assays on the cultured cells. […]

[2] = Michaelis-Menten constant for luciferin of purified mutants; assay type: biochemical; conditions: purified enzyme
Source text: (§2) Substrate binding was screened by measuring an apparent composite Km (see Example 2) for luciferin and ATP. […] The Km for luciferin rose while the Km for ATP declined (Table 3). The reason for this change is unknown, although it can be speculated that more efficient release of oxyluciferin or luciferin inhibitors could lead to more rapid enzyme turnover.
(§3) Protein purification: Four mutants that are described herein (Luc[T249M], Luc49-7C6, Luc78-0B10, and Luc90-1B5) were purified using a previously published procedure (Hastings et al., 1996).

[3] = Michaelis-Menten constant for ATP of purified mutants; assay type: biochemical; conditions: purified enzyme
Source text: as §2, §3

[4] = Retention of luminescence activity at pH 4.5 and 48° C.; assay type: physicochemical; conditions: pH 4.5 and 48° C. (FIG. 54B)
Method: Three populations of random mutants were produced using clone Luc90-1B5 as a template. These three populations were screened on the robot as experiments 114, 115, and 117. […] These screening conditions were biased to select clones that have increased retention of luminescence activity over time at pH 4.5 at 48° C. and increased luminescence activity when assayed at pH 7.1 with 10 μM ATP. Seventeen clones from experiment 114, seven clones from experiment 115, and ten clones from experiment 116 were shuffled together using sPCR and selected mutants from this screen were run on the robot as experiment 117. Eighteen clones were selected from experiment 117.

[5] = Robotic quantitative screen of E. coli lysates: signal stability (S), sustained enzymatic turnover; assay type: biochemical; conditions: inverse ratio with reference; Control is Luc85-4F12 at 65° C. (=1)
Method: One daughter plate is placed in the luminometer and the 1X assay method is used. After the assay, the plate is placed in the ambient incubator, and the second daughter plate is placed in the luminometer. For the second plate, the 0.02X assay method is used. This plate is discarded, and the first plate is returned from the incubator to the luminometer. The repeat assay method is used (i.e., no reagent is injected). Afterwards, the plate is again returned to the ambient incubator.
The plate in the ambient incubator is returned to the luminometer and the repeat assay method is again used. The plate is returned afterwards to the ambient incubator.
The plate in the ambient incubator is returned to the luminometer and the repeat assay method is again used. The plate is discarded afterwards.
as §1
Calculate signal stability (S): For each sample, use linear regression to fit In(L)=In(L0)[…] using the four luminescence measurements of the initial microplate with 1X substrate concentrations (Plates 1, 3, 4, and 7). Also calculate the regression coefficient. From the calculated values of T and L0, calculate the integral of luminescence by int(L)=τL0(1−exp(−tf/τ)), where tf is the average time of the last measurement (e.g., 15 hours). The signal stability is calculated as S=(1−int(L)/Litf)^2, where Li is the initial measurement of normalized luminescence with 1× substrate concentration (Plate 1).
[Note: To correct for evaporation, an equation S=(1+K−int(L)/Litf)^2, may be used where 1/K=2(relative change of liquid volume at tf).]
Calculate the reference-normalized values: For the criteria parameter of each sample, a reference-normalized value is determined by calculating the ratio or inverse ratio with the respective reference value. […]

B1: Luc90-1B5: mutant luciferase, SEQ ID NO:24 (protein)
chain: MADKNILYGPEPFYPLEDGTAGEQMFDALSRYADIPGCIALTNAHTKENVLYEEFLKLSCRLAESFKKYGLKQNDTIAVCSENGLQFFLPVIASLYLGIIVAPVNDKYIERELIHSLGIVKPRIVFCSKNTFQKVLNVKSKLKSIETIIILDLNEDLGGYQCLNNFISQNSDSNLDVKKFKPYSFNRDDQVALIMFSSGTTGLPKGVMLTHKNIVARFSLAKDPTFGNAINPTTAILTVIPFHHGFGMMTTLGYFTCGFRVVLMHTFEEKLFLQSLQDYKVESTLLVPTLMAFLAKSALVEKYDLSHLKEIASGGAPLSKEIGEMVKKRFKLNFVRQGYGLTETTSAVLITPKGDAKPGSTGKIVPFHAVKVVDPTTGKILGPNEPGELYFKGPMIMKGYYNNEEATKAIIDNDGWLRSGDIAYYDNDGHFYIVDRLKSLIKYKGYQVAPAEIEGILLQHPYIVDAGVTGIPDEAAGELPAAGVVVQTGKYLNEQIVQDYVASQVSTAKWLRGGVKFLDEIPKGSTGKIDRKVLRQMFEKHTNG
modifications: Mutant luciferase
[1]
  Enzyme stability (tau): 1.1154
[2]
  Km: 2.2 µM
[3]
  Km: 3 µM
[4]
  half-life: about 3 minutes
[5]
  Signal stability (S): 1.0011
